The values that follow come from patent US20120201826A1 (NOV IMMUNE S A, published 2012).

For orientation: Kd means the free concentration of one partner at which half of the binding sites on the other are occupied at equilibrium, for simple one-to-one binding. As usually defined, the EC50 (read off the curve) is the midpoint of the concentration-response curve. A lower EC50 (read off the curve) goes with higher potency in that assay.

Assay [1] concerns the target T1, recombinant human RANTES (huRANTES, Peprotech) (human, UniProt P13501 24-91).
T1 sequence: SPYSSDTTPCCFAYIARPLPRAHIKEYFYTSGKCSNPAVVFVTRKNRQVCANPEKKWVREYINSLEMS
The assay can be described thus: cell-based or functional assay.

The target of assay [2] is T2, native human RANTES produced by THP1 cells (human, UniProt P13501 24-91).
T2 sequence: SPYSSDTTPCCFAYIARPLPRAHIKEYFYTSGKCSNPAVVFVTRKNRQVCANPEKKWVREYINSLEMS
Put plainly: cell-based or functional assay.

Assay [3] deals with T1, recombinant human RANTES (huRANTES, …). Put plainly: cell-based or functional assay. This is another data set of the same source.
For assay [4] the target is unchanged. Put plainly: cell-based or functional assay. The source holds these as a separate data set.
Assay [5] deals with T2, native human RANTES produced by THP1 …. The assay can be described thus: cell-based or functional assay. This is another data set of the same source.
For assay [6], the target named is T3, rat RANTES, expressed as fusion protein (ELISA panel) (rat, UniProt P30882 24-91 (mouse entry), Biotinylated in vivo at the AviTag, which is not in the letters).
T3 construct: not shown: NusA fusion partner with Factor X site, and the C-terminal AviTag
T3 sequence (P30882 24-91 limits assumed): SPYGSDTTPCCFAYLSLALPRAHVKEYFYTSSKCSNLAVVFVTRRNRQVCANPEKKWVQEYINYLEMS
The assay can be described thus: ELISA, chemokine coated at 5 ug/ml, concentration range of 1E4. (An ELISA detects its analyte on a solid surface through an enzyme-linked reagent.)

Assay [7] concerns the target T1, recombinant human RANTES (huRANTES, …). Put plainly: SPR (Biacore 2000), 1E4 captured on anti-human IgG, chemokine as analyte, 25 C, 1:1 Langmuir fit. The protocol: (§1) 433 RU (response unit) of a donkey anti-human IgG polyclonal antibody were immobilized by EDC/NHS chemistry on a C1 Biacore chip. […] The surface was regenerated after each cycle by injection of 10 mM glycine pH=2 at 30 μL/min, for 60s followed by 1 min. of stabilization time in HBS-EP buffer.
(§2) All proteins were diluted in the running buffer HBS-EP buffer (Biacore AB, Uppsala, Sweden). Injection was performed at 75 μl/min for 3 min. followed by 15 min. of dissociation time and the temperature was set at 25° C.

For assay [8], the target named is T4, NusA-huRANTES fusion protein (human, UniProt P13501 24-91, biotinylated in vivo at the AviTag).
T4 construct: GenBank M21121 is printed for the human RANTES gene; also called NusA-Rantes; not shown: NusA fusion partner of expression plasmid pET43 (Novagen); Factor X protease cleavage site at the C-terminus of NusA; AviTag biotinylation site at the C-terminus of the chemokine
T4 sequence: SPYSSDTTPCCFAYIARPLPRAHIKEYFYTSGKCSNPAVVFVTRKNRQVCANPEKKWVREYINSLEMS
The assay is described as above. The procedure:
as §1, §2

The target of assay [9] is T5, NusA-cynoRANTES fusion protein (cynomolgus monkey, UniProt Q8HYQ1 24-91 (rhesus entry), biotinylated in vivo at the AviTag).
T5 construct: also called cynomolgus RANTES; not shown: NusA fusion partner of expression plasmid pET43 (Novagen); Factor X protease cleavage site at the C-terminus of NusA; AviTag biotinylation site at the C-terminus of the chemokine
T5 sequence: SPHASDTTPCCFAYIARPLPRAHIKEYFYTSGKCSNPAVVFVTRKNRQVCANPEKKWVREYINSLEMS
The description is as above. The procedure:
as §1, §2

In the next assay the target is T6, moIP-10 (mouse, UniProt P17515).
T6 construct: coated protein of the ELISA panel; also called mouse IP-10
T6 sequence (chemokine, looked up): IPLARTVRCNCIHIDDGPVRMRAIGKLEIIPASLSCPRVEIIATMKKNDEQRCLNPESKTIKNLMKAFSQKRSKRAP
Put plainly: ELISA: chemokine fusion protein coated at 5 µg/ml, titration of 1E4, anti-human Fc-gamma-HRP and fluorescent substrate.

Another assay concerns the target T7, ratIP-10 (rat, UniProt P48973).
T7 construct: coated protein of the ELISA panel
T7 sequence (chemokine, looked up): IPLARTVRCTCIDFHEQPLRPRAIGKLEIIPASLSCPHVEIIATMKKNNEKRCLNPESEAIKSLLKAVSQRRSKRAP
The assay is described as above.

Assay [10] addresses T4, NusA-huRANTES fusion protein. Described as above.
The target of assay [11] is T5, NusA-cynoRANTES fusion protein. The description is as above.
Assay [12] deals with T8, mouse RANTES, expressed as fusion protein (ELISA panel) (mouse, UniProt P30882 24-91, Biotinylated in vivo at the AviTag, which is not in the letters).
T8 construct: not shown: NusA fusion partner with Factor X site, and the C-terminal AviTag
T8 sequence (P30882 24-91 limits assumed): as the sequence (P30882 24-91 limits assumed) above
Described as above.

For assay [13], the target named is T9, mouse RANTES, biotinylated in vivo (Example 14) (mouse, UniProt P30882 24-91, biotinylated in vivo at the AviTag).
T9 construct: Captured on streptavidin plates; not shown: AviTag biotinylation site at the C-terminus
T9 sequence (P30882 24-91): as the sequence (P30882 24-91 limits assumed) above
The assay can be described thus: ELISA: biotinylated chemokine captured on Streptawell plate, 1E4 at 1 µg/ml, goat anti-human IgG Fc-gamma-HRP, TMB, OD450. The procedure:
Three mutants of mouse RANTES were generated by site directed mutagenesis in order to introduce the human residues at those positions: [S16A/L17R/A18P]; [S32G/L37P] and [Q59R/Y64S]. […] These variant of mouse RANTES were captured in streptavidin coated plates (Streptawell, Roche). […] The plate was washed and incubated with a goat anti-human IgG Fcγ-specific antibody coupled to horse radish peroxidase (Jackson). […] The plates were read at 450 nm.

B1: 1D9 antibody, IgG1 format (antibody, V domains shown)
VH: QVQLVQSGAEVKKPGASVKVSCKVSGYTLTEFAMHWVRQAPGKGLEWMGGFVPEDGETIYAQKFQGRVTMTEDTSTDTAYMELSSLRSEDTAVYYCATDPLYTPGLEPWGQGTTVTVSS
VL: SYVLTQPPSVSVAPGQTARITCGGNNIESKSVHWYQQKPGQAPVLVVYDDSDRPSGIPERFSGSNSGNTATLTISRVEAGDEADYYCQVWDSNTDHWVFGGGTKLTVLG
For the molecule B1, in assay [1], the “Chemotaxis IC50 (nM), 0.2 nM huRANTES; L1.2-hCCR5 cells; IgG1 format” value (“Chemotaxis IC50 (nM), 0.2 nM huRANTES” for short) worked out at 0.038 nM and the “Chemotaxis IC50 (nM), 1 nM huRANTES; L1.2-hCCR5 cells; IgG1 format” value (“Chemotaxis IC50 (nM), 1 nM huRANTES” below) is 0.35 nM. Besides, the “Chemotaxis IC50 (nM), native huRANTES from THP1 cells; L1.2-hCCR5 cells; IgG1 format” value (“Chemotaxis IC50 (nM), native huRANTES” for short) in assay [2] is 0.033 nM.

B2: 1E4 antibody, IgG1 format (antibody, V domains shown)
VH: QVQLVQSGAEVKKPGASVKVSCKVSGYTLTEFAMHWVRQAPGKGLEWMGGFVPEDGETIYAQKFQGRVTMTEDTSTDTAYMELSSLRSEDTAVYYCATDPLYEGSFSVWGQGTTVTVSS
VL: SYVLTQPPSVSVAPGQTARITCGGNNIESKSVHWYQQKPGQAPVLVVYDDSDRPSGIPERFSGSNSGNTATLTISRVEAGDEADYYCQVWDSNTDHWVFGGGTKLTVLG
notes: also called antibody 1E4 purified from CHO supernatant
For the molecule B2, the “Chemotaxis IC50 (nM), 0.2 nM huRANTES” value in assay [1] came to 0.034 nM. Besides, the “Chemotaxis IC50 (nM), 1 nM huRANTES” value in assay [1] was determined as 0.46 nM. Moreover, the “Chemotaxis IC50 (nM), native huRANTES” value in [2] is 0.028 nM. The “Calcium flux IC50 (nM); L1.2-hCCR1; 25 nM huRANTES” value in [3] came out at 4.9 nM. Besides, the “Calcium flux IC50 (nM); L1.2-hCCR3; 25 nM huRANTES” value in assay [3] was determined as 4.46 nM. Also, in assay [3], the “Calcium flux IC50 (nM); L1.2-hCCR5; 4 nM huRANTES” value came out at 0.54 nM. Further, the “Chemotaxis IC50 (nM); L1.2-hCCR1; 2 nM huRANTES” value in assay [4] was 0.46 nM. In addition, the “Chemotaxis IC50 (nM); L1.2-hCCR3; 10 nM huRANTES” value in assay [4] stood at 3.33 nM. Besides, in assay [4], the “Chemotaxis IC50 (nM); L1.2-hCCR5; 1 nM huRANTES” value is 0.2 nM. The “Chemotaxis IC50 (nM); L1.2-hCCR5; 1 nM native huRANTES” value in assay [5] is 0.09 nM. For the same molecule, the binding result in [6] is listed as “no binding”; with moIP-10 it was “no binding (tested: about 3 µg/ml)”; with ratIP-10, “no binding (tested: about 3 µg/ml)”; in assay [12] it was “no binding (tested: about 3 µg/ml)”; in assay [13] it was “no binding (tested: 1 µg/ml)”. Moreover, the Kd is 0.455 nM in assay [7], 0.447 nM in [8] and 2.24 nM in assay [9]. In addition, the concentration giving a half-maximal response (EC50 (read off the curve)) in assay [10] and in [11] was around 0.01 µg/mL throughout.

B3: C8 antibody, IgG1 format (antibody, V domains shown)
VH: QVQLVESGGGVVQPGRSLRLSCAASGFTFSSYAMHWVRQAPGKGLEWVAVISYDGSNKYYADSVKGRFTISRDNSKNTLYLQMNSLRAEDTAVYYCARETFPHYYYYYMDVWGRGTLVTVSS
VL: SYVLTQPPSVSVAPGQTARITCEGDDTDIGTVNWYQQKPGQAPVLVISEDGYRPSGIPERFSGSNSGNTATLTISRVEAGDEADYYCQFWDVDSDHPVFGGGTQLTVLG
Take B3: in assay [1], the “Chemotaxis IC50 (nM), 0.2 nM huRANTES” value is 0.49 nM and the “Chemotaxis IC50 (nM), 1 nM huRANTES” value turned out to be 2.1 nM. Also, the “Chemotaxis IC50 (nM), native huRANTES” value in [2] is 1.6 nM.
